Results: US20090123479A1 (published 2009)

T1: Endogenous human IL-23 (human, UniProt Q9NPF7 20-189; P29460 23-328)
T1 construct: also called endogenous human IL-23 from stimulated dendritic cells
T1 sequence 1: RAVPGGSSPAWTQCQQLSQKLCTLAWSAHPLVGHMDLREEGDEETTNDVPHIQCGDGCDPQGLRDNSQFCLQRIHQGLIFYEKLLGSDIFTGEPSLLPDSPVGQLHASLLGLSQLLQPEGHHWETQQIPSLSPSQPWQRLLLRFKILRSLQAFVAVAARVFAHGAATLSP
T1 sequence 2: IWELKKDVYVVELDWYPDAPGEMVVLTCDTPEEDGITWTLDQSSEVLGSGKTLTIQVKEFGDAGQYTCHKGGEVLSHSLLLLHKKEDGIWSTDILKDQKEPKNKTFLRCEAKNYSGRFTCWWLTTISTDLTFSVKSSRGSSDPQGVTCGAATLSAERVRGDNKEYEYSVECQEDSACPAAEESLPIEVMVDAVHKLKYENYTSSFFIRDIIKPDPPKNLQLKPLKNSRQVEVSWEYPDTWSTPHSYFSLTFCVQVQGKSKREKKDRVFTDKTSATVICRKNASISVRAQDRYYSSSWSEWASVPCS

T2: recombinant human IL-23 (human, UniProt Q9NPF7 20-189; P29460 23-328)
T2 construct: also called hIL-23
T2 sequence 1: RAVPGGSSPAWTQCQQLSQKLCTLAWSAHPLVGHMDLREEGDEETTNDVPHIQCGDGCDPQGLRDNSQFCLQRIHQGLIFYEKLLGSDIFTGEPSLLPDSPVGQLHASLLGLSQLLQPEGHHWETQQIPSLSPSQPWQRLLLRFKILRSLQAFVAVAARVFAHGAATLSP
T2 sequence 2: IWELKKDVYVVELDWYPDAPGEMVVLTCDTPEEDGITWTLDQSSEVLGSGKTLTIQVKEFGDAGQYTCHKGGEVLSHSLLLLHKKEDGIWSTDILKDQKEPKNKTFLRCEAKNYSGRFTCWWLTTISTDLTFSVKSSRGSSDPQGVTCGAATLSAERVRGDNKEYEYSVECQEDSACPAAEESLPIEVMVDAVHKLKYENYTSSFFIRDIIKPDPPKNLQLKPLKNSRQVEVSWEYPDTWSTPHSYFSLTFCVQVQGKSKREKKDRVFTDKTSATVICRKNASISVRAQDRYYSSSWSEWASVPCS

T3: recombinant cynomologus IL-23 (cynomolgus, limits assumed)
T3 construct: also called cynomolgus IL-23; cyno IL23
T3 chain 1: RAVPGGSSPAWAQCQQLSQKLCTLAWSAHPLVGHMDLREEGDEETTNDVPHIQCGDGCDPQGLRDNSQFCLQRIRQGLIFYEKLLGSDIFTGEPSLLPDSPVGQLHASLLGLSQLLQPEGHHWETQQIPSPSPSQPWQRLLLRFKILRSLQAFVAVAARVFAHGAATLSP
T3 chain 2: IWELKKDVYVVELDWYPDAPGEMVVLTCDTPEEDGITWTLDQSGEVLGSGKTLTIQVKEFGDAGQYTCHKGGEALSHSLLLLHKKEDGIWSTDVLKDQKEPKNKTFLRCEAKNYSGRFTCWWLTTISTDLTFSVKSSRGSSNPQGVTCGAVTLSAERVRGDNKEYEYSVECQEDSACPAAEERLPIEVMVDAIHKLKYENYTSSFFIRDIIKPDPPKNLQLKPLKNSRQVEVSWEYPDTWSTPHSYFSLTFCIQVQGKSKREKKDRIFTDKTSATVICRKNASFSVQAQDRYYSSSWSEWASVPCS


Tests used:
[1] = target: T1, Endogenous human IL-23; experiment: receptor inhibition ELISA: plate coated with recombinant human IL-23 receptor, endogenous human IL-23 at 3.5 ng/ml pre-incubated with titrated purified antibody, bound IL-23 detected with biotinylated anti-human IL-12; 1% BSA
Description: Recombinant human IL-23 Receptor (R&D systems 1400-IR-050) was coated onto 96 well plates at a concentration of 1 μg/ml. Endogenous human IL-23 at 3.5 ng/ml final, was pre incubated for 1 hour with a titration of purified antibody material before being added to the pre-coated plates. Detection was performed with biotinylated anti-human 1L12 (R&D systems BAF-219) followed by Streptavidin-HRP (GE Healthcare RPN 4401). This neutralisation ELISA used 1% BSA.

[2] = target: T2, recombinant human IL-23; experiment: SPR (Biacore 3000), hybridoma supernatant mAb captured on anti-murine IgG, human IL-23 analyte, 1:1 model, 25 C
Description: (§1) Anti-murine IgG was immobilised on a CM5 sensorchip using amine coupling chemistry. Anti-IL-23 hybridoma antibody sample was injected over the surface and the murine mAb captured. Subsequently recombinant human IL-23, recombinant cynomologus IL-23 or recombinant human IL-12 was flowed over the captured antibody surface at 5 different concentrations (range 0 nM-91 nM) to obtain binding sensorgrams. Regeneration of the surface after antibody and antigen injections was done by injecting 0.1 M phosphoric acid for 3 minutes. Double referencing was used on all sensorgrams with a buffer injection over the anti-murine IgG sensorchip surface. The experiment was performed at 25° C. in HBS-EP buffer. Resulting sensorgram data was analysed using the 1:1 binding model incorporated within the Biaevaluation software for the Biacore 3000 instrument. Data presented in Table 2 are from using hybridoma supernatant taken from a tissue culture flask.

[3] = target: T3, recombinant cynomologus IL-23; experiment: SPR (Biacore 3000), hybridoma supernatant mAb captured on anti-murine IgG, cynomologus IL-23 analyte, 1:1 model, 25 C
Description: as §1

[4] = target: T2, recombinant human IL-23; experiment: IL-23/IL-23R inhibition ELISA (optimised protocol, OD450): plate coated with human IL23R Fc chimera, antibody pre-incubated with constant human IL-23, bound IL-23 detected with biotinylated anti-human IL-12; purified antibody
Description: (§2) Optimised protocol: Plates were coated with human IL23R Fc chimera at […] (phosphate buffered saline). 50 μl/well of this mixture was incubated overnight at 4° C. The plates were then washed three times with Phosphate Buffered Saline with 0.05% Tween 20 (PBST). Plates were blocked with 4% skim milk powder (Fluka BioChemika #70166) PBST 100 μl/well for a minimum of 1 hour at room temperature. The plates were then washed three times with Phosphate Buffered Saline+0.05% Tween 20 (PBST). Various concentrations of antibody were incubated in a separate plate with a constant concentration of IL-23 for 1 hour at room temperature. 50 ul of each mixture were transferred to the assay plate and incubated at RT for 1 hr. They were then washed three times with Phosphate Buffered Saline+0.05% Tween 20 (PBST). Bound IL23 was detected by anti human 1L12 Biotin labelled Ab (R&D systems BAF219) diluted to 100 ng/ml in 4% skim milk powder (Fluka BioChemika #70166) PBST. 50 μl/well of the biotinylated antibody was added and incubated at RT for 1 hour. The plates were then washed three times with Phosphate Buffered Saline+0.05% Tween 20 (PBST). SA HRP (GE healthcare RPN4401) was diluted 1/4000 in 4% skim m ilk powder (Fluka BioChemika #70166) PBS, 50 μl/well was added to the plates. The plates were then washed three times with Phosphate Buffered Saline+0.05% Tween 20 (PBST). 50 ul/well of TMB was added to the plates and incubated at RT for 15 min. 25 μl/well of 3 MH₂SO₄ was added to the wells already containing TMB. The plate was read at OD450 nm using the SOftmaxPRO versamax plate reader.

[5] = target: T2, recombinant human IL-23; experiment: SPR (Biacore 3000), CHO supernatant antibody captured on Protein A or anti-human IgG, IL-23 analyte at 256, 64, 16, 4 nM
[6] = target: T2, recombinant human IL-23; experiment: SPR (Biacore T100), CHO supernatant antibody captured on Protein A or anti-human IgG, IL-23 analyte at 256, 64, 16, 4, 1 nM
[7] = target: T2, recombinant human IL-23; experiment: sandwich ELISA (optimised protocol, OD450): plate coated with anti-human IL-12, antibody pre-incubated with constant human IL-23, bound antibody detected with anti-human IgG gamma chain HRP; purified antibody
Description: Optimised assay conditions: Plates were coated with anti human IL12 at 2 μg/diluent (phosphate buffered saline). 50 μl/well of this mixture was incubated overnight at 4° C. The plates were then washed three times with Phosphate Buffered Saline with 0.05% Tween 20 (PBST). Plates were blocked with 4% skim milk powder (Fluka BioChemika #70166) PBS 200 μl/well for a minimum of 1 hour at room temperature. The plates were then washed three times with Phosphate Buffered Saline+0.05% Tween 20 (PBST). Various concentrations of antibody were incubated in a separate plate with a constant concentration of IL-23 for 1 hour at room temperature. 50 ul of each mixture were transferred to the assay plate and incubated at RT for 1 hr. They were then washed three times with Phosphate Buffered Saline+0.05% Tween 20 (PBST). […] 50 μl/well of the detection antibody was added and incubated at RT for 1 hour. The plates were then washed three times with Phosphate Buffered Saline+0.05% Tween 20 (PBST). 50 μl/well of TMB was added to the plates and incubated at RT for 10 min. 50 μl/well of 1 MH₂SO₄ was added. The plate was read at OD450 nm using the SOftmaxPRO versamax plate reader.

[8] = target: T2, recombinant human IL-23; experiment: IL-23/IL-23R inhibition ELISA (first protocol, OD490): plate coated with human IL23R Fc chimera, antibody pre-incubated with constant human IL-23, bound IL-23 detected with biotinylated anti-human IL-12; tissue culture supernatant
Description: Chimeric and humanized mAbs were assessed for their ability to neutralise human IL-23 binding to human IL-23 receptor, and cyno IL23 binding to human IL23 receptor. Plates were coated with human IL23R Fc chimera at 1 μg/diluent (bicarbonate buffer). 50 μl/well of this mixture was incubated overnight at 4° C. The plates were then washed twice with Tris Buffered Saline with 0.05% Tween 20 (TBST). Plates were blocked with 1% BSA TBST 100 μl/well for a minimum of 1 hour at room temperature. The plates were then washed twice with Tris Buffered Saline with 0.05% Tween 20 (TBST). Various concentrations of antibody were incubated in a separate plate with a constant concentration of IL-23 for 1 hour at room temperature. 50 ul of each mixture were transferred to the assay plate and incubated at RT for 1 hr. They were then washed twice with Tris Buffered Saline with 0.05% Tween 20 (TBST). Bound IL23 was detected by anti human 1L12 Biotin labelled Ab (R&D systems BAF219) diluted to 100 ng/ml in 1% BSA TBST. 50 μl/well of the biotinylated antibody was added and incubated at RT for 1 hour. The plates were then washed twice with Tris Buffered Saline with 0.05% Tween 20 (TBST). ExtrAvidin-Peroxidase (Sigma E2886) was diluted 1/1000 in 1% BSA TBST, 50 μl/well was added to the plates. […] The plate was read at OD490 nm using the SOftmaxPRO versamax plate reader.

[9] = target: T3, recombinant cynomologus IL-23; experiment: IL-23/IL-23R inhibition ELISA (optimised protocol, OD450): plate coated with human IL23R Fc chimera, antibody pre-incubated with constant cynomolgus IL-23, bound IL-23 detected with biotinylated anti-human IL-12; purified antibody
Description: as §2

Binder	IC50 (read off the curve) [1]	Kd [2]	koff [2]	kon [2]	Kd [3]	koff [3]	kon [3]	IC50 (read off the curve) [4]	Kd [5]	koff [5]	kon [5]	Kd [6]	koff [6]	kon [6]	EC50 (read off the curve) [7]	IC50 (read off the curve) [8]	IC50 (read off the curve) [9]
murine mAb 8C9 2H6 (antibody, V domains shown, Murine hybridoma antibody; also called mouse parental; IL-23 murine 8C92H6 mAb) VH: QVQLQQSGAELARPGTSVKLSCKASGYTFTSYGITWVKQRTGQGLEWIGENYPRSGNTYYNEKFKGKATLTADKSSSTAYMELRSLTSEDSAVYFCARCEFISTVVAPYYYALDYWGQGTSVTVSS VL: DIVLTQSPASLAVSLGQKATISCKASKKVTIFGSISALHWYQQKPGQPPKLIYNGAKLESGVSARFSDSGSQNRSPFGNQLSFTLTIDPVEADDAATYYCLQNKEVPYTFGGGTKLEIK	~0.06 µg/mL	2.99 nM	0.000301 s⁻¹	101000 M⁻¹ s⁻¹	3.38 nM	0.000369 s⁻¹	110000 M⁻¹ s⁻¹										
A3M1 (antibody, human IgG1, kappa, V domains shown, Full length chains) VH: QVQLVQSGAEVKKPGSSVKVSCKASGYTFTSYGITWVRQAPGQGLEWMGENYPRSGNTYYNEKFKGRVTITADKSTSTAYMELSSLRSEDTAVYYCARSEFISTVVAPYYYALDYWGQGTLVTVSS VL: DIVMTQSPDSLAVSLGERATINCKASKKVTIFGSISALHWYQQKPGQPPKLIYNGAKLESGVSDRFSDSGSQNRSPFGNQLSFTLTISSLQAEDVAVYYCLQNKEVPYTFGGGTKVEIKR								~0.5 nM	1.5 nM	0.00036 s⁻¹	240000 M⁻¹ s⁻¹	2.4 nM	0.00031 s⁻¹	130000 M⁻¹ s⁻¹	~0.04 nM	~0.01 µg/mL	~0.8 nM
